Molecular target: N-terminus His-tag cleaved rBPSL1038 (rBPSL1038-post-cleavage) (Burkholderia pseudomallei) (UniProt Q63W52)
Assay: SEC

N-terminus His-tag cleaved rBPSL1038 (rBPSL1038-post-cleavage) (from UniProt Q63W52 1-88) (natural protein)
stoichiometry N: 2
